In US9273364B2 (Kyoto University, priority 2010, dated 2016):

Columns and labels:
[1] = system: mouse FGFR2 exon 8 RNA probe (U1 snRNA binding); experiment: In vitro exon-recognition assay, exon 8 probe; format: biochemical; settings: HeLa nuclear extract, UV crosslinking
Description: (§1) A mutated DNA template of 3′ ss in intron 8 and 5′ ss in intron 9 was prepared from mutated reporter vectors as shown in FIG. 3A. The RNA substrates were labeled with ^32P by in vitro T7 transcription. In vitro splicing reaction and UV cross linking were performed under the conditions described by Sawa [Sawa H, Shimura Y (1992) Genes Dev 6: 244-254.]. To identify the shifted bands by UV cross linking, pre-heated cDNA oligo (10 microgram/mL) for U1 (5′-[…]-3′/SEQ ID NO:38) or U2 (5′-[…]-3′/SEQ ID NO:39) was added to the RNAs after UV cross linking, and the U1 or U2 cDNA oligo/RNAs mixture were digested with 50 U/mL of RNase H at 30 degrees C. for 10 min. In FIG. 5C, highly purified Flag-Fox2 and Flag-ESRP1 were added to RNAs and incubated at room temperature for 5 min before splicing reaction to examine their inhibitory or activating effects on exon recognition of U1 snRNA or U2 snRNA. After these reactions, RNAs were subjected to denaturing PAGE analysis and autoradiography.
(§2) Next, the present inventors tested whether Fox and/or ESRP cause switching from exon 9 to exon 8 through interruption of exon 9 recognition. The present inventors examined this under the in vitro splicing conditions using ^32P-labeled RNA probe of exon 9 with introns containing UGCAUG and ISE/ISS-3 sites (FIG. 10C, top panel) and the exon 8 RNA probe of same stretches. […]

[2] = system: mouse FGFR2 exon 9 RNA probe (U1 and U2 snRNA binding); experiment: In vitro exon-recognition assay, exon 9 probe; format: biochemical; settings: HeLa nuclear extract, UV crosslinking
Description: as §1, §2

Molecule	suppressive or activating effect on exon recognition [1]	shifted bands by U1 and U2 snRNA [2]
ESRP1 protein: highly purified recombinant Flag-ESRP1 added to RNAs before splicing reaction (protein, UniProt Q6NXG1 1-681, looked up, Flag tag) Epithelial splicing …: MTASPDYLVVLFGITAGATGAKLGSDEKELILLFWKVVDLANKKVGQLHEVLVRPDQLELTEDCKEETKIDVESLSSASQLDQALRQFNQSVSNELNIGVGTSFCLCTDGQLHVRQILHPEASKKNVLLPECFYSFFDLRKEFKKCCPGSPDIDKLDVATMTEYLNFEKSSSVSRYGASQVEDMGNIILAMISEPYNHRFSDPERVNYKFESGTCSKMELIDDNTVVRARGLPWQSSDQDIARFFKGLNIAKGGAALCLNAQGRRNGEALVRFVSEEHRDLALQRHKHHMGTRYIEVYKATGEDFLKIAGGTSNEVAQFLSKENQVIVRMRGLPFTATAEEVVAFFGQHCPITGGKEGILFVTYPDGRPTGDAFVLFACEEYAQNALRKHKDLLGKRYIELFRSTAAEVQQVLNRFSSAPLIPLPTPPIIPVLPQQFVPPTNVRDCIRLRGLPYAATIEDILDFLGEFATDIRTHGVHMVLNHQGRPSGDAFIQMKSADRAFMAAQKCHKKNMKDRYVEVFQCSAEEMNFVLMGGTLNRNGLSPPPCKLPCLSPPSYTFPAPAAVIPTEAAIYQPSVILNPRALQPSTAYYPAGTQLFMNYTAYYPSPPGSPNSLGYFPTAANLSGVPPQPGTVVRMQGLAYNTGVKEILNFFQGYQYATEDGLIHTNDQARTLPKEWVCI	not obvious	decreased
Fox2 protein: highly purified recombinant Flag-Fox2 added to RNAs before splicing reaction (protein, UniProt O43251 1-390, looked up, Flag tag) RNA binding protein fox-1 …: MQNEPLTPGYHGFPARDSQGNQEPTTTPDAMVQPFTTIPFPPPPQNGIPTEYGVPHTQDYAGQTGEHNLTLYGSTQAHGEQSSNSPSTQNGSLTTEGGAQTDGQQSQTQSSENSESKSTPKRLHVSNIPFRFRDPDLRQMFGQFGKILDVEIIFNERGSKGFGFVTFENSADADRAREKLHGTVVEGRKIEVNNATARVMTNKKMVTPYANGWKLSPVVGAVYGPELYAASSFQADVSLGNDAAVPLSGRGGINTYIPLISLPLVPGFPYPTAATTAAAFRGAHLRGRGRTVYGAVRAVPPTAIPAYPGVVYQDGFYGADLYGGYAAYRYAQPATATAATAAAAAAAAYSDGYGRVYTADPYHALAPAASYGVGAVASLYRGGYSRFAPY	not obvious	decreased
